Experimental data as given in the RNAGym collection of RNA variant scans (doi:10.1073/pnas.2313332121).
Fewer inactive variants are shown than the library holds.

B1: TPR 5TU (parent)
chain: GGAUCUUCUCGAUCUAACAAAAAAGACAAAUCUGCCACAAAGCUUGAGAGCAUCUUCGGAUGCAGAGGCGGCAGCCUUCGGUGGCGCGAUAGCGCCAACGUUCUCAACUAUGACACGCAAAACGCGUGCUCCGUUGAAUGGAGUUUAUCAUG

Variants of: B1
Experiment: polymerase ribozyme fitness, log enrichment relative to wild type (log ratio); higher = more active; in vitro selection for triplet polymerase activity
Procedure, shortened: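 For each subunit of a heterodimeric triplet polymerase ribozyme, a mutant library was built by PCR and transcribed, then taken through a single in vitro selection round in triplicate. Selection involved annealing to a biotinylated primer, the partner subunit and triplets, incubation frozen at −7 °C, gel excision of extended constructs, capture on streptavidin beads and RT-PCR. Genotypes were retained after Illumina sequencing of inputs and outputs only with ≥10 input reads and ≥1 read in each output. Fitness is defined as the logarithm of a genotype's enrichment relative to wild-type enrichment, using inverse-variance-weighted averages across replicates, with the logarithm taken to base 2.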

Variant | polymerase ribozyme fitness (log ratio)
GGAUCUUCUCGAUCUAACAAAAAAGACAAAUCUGCCACAAAGCUUGAGAGCAUCUUCGUAUGCAGAGGGGGCAGCCUUCGGUGGCGCGAUAGCGUCAACGUUCUCAACUAUGACAGGCAAAACGCGUGCUCCGUUGAAUGGAGUUUAUCAUG [G59U C69G C95U C116G] | -1.81
GGAUCUUCUCGAUCUAACAAAAAAGACAAAUCUGCCACAAAGCUUGAGAGCAUCUUCGUAUGCAGAGGCGGCAGCUUUCGGUUGCGCGAUAGCGCCAACGUGCUCAACUAUGACACGCAAAAAGCGUGCUCCGUUGAAUGGAGUUUAUCAUG [G59U C76U G83U U102G C123A] | ≤ -4.2
GGAUCUUCUCGAUCUAACAAAAAAGACAAAUCUGCCACAAAGCUUGAGAGCAUCUUCGCAUGCAGAGGCGGCAGCCUUCGGCGGCGCGAUAGCGCCAACGUUCUCAACUAUGACACGCAAAACGCGUGCUCCGUUGAAUGGAGUUUAUCAUG [G59C U82C] | 0.0118
GGAUCUUCUCGAUCUAACAAAAAAGACAAAUCUGCCACAAAGCUUGAGAGCAUCUUCGUAUGCCGAGGCGACAGCCUUCGGUGGCGCGAUAGCGCCAACGUUCUCAACUAUGACACUCAAAACGCGUGCUCCGUUGAAUGGAGUUUAUCAUG [G59U A64C G71A G117U] | ≤ -4.2
GGAUCUUCUCGAUCUAACAAAAAAGACAAAUCUGCCACAAAGCUUGAGAGCAUCUUCGUAUGCAGAGGCGGCAGCGUUCGGUGGCGCGAUGGCGCCAACGUUCUCCACUAUGAUACGCAAAACGUGUACUCCGUUGAAUGGAUUUUAUCAUG [G59U C76G A91G A106C C114U C125U G128A G143U] | ≤ -4.2
GGAUCUUCUCGAUCUAACAAAAAAGACAAAUCUGCCACAAAGCUUGAGAGCAUCUUCGUUUGCAGAGGCGGCAGCCUUCGGUGGAGCGAUAGCGCCAACGUUCUCAACUAUGACACGCAAAACGCGUGCUCCGUUGAAUGGAGUUUAUCAUG [G59U A60U C85A] | -2.59
GGAUCUUCUCGAUCUAACAAAAAAGACAAAUCUGCCACAAAGCUUGAGAGCAUCUUCGCAUGCAGAGGCGGCAGCCUUCGGUGGCGCGAUAGCGCCAACGUUCUCAACUAUGACACGCAAAACGCGUGCUCCGUUGAAUGGAGUUUAACAUG [G59C U148A] | -2.88
GGAUCUUCUCGAUCUAACAAAAAAGACAAAUCUGCCACAAAGCUUGAGAGCAUCUUCGCAUGCAGAGGCGGCAGCCUUCGGUGGCGCGAUAGCGCCAACGUUCUCAACUAUGACACACAAAACGCGUGCUCCGUUGAAUGGAGUUUAUCAUG [G59C G117A] | 1.39
GGAUCUUCUCGAUCUAACAAAAAAGACAAAUCUGCCACAAAGCUUGAGAGCAUCUUCGCAUGCAGAGGCGGCAGCCUUCGGGGGCGCGAUAGCGCCAACGUUCUCAACUAUGACACGCAAAACGCGUGCUCCGUUGAAUGGACUUUAUCAUG [G59C U82G G143C] | -2.29
GGAUCUUCUCGAUCUAACAAAAAAGACAAAUCUGCCACAAAGCUUGAGAGCAUCUUCGCAUGCAGAGGCGGCAGCCUUCGGUGGCGCGAUAGCGCCAACGUUCUCAACUAUGACACGCAAAACGCGUGCUCCGUUGAAUGGAGUUCAUCAUG [G59C U146C] | 0.716
GGAUCUUCUCGAUCUAACAAAAAAGACAAAUCUGCCACAAAGCUUGAGAGCAUCUUCGCAUGCAGAGGCGGCAGCCUUCGGUGGCGCGAUAGCGCCAACGUUCUCAACUAUGACACGCAAAACGCGUGCUCCGUUGAAUGGAGUUGAUCAUG [G59C U146G] | -0.145
GGAUCUUCUCGAUCUAACAAAAAAGACAAAUCUGCCACAAAGCUUGAGAGCAUCUUCGCAUGCAGAGGCGGCAGCCUUCGGUGGCGCGACAGCGCCAACGUUCUCAAGUAUGACACGCUAAACGCGUGCUCCGUUGAAUGGAGUUUAUCUUG [G59C U90C C108G A119U A150U] | ≤ -4.2
GGAUCUUCUCGAUCUAACAAAAAAGACAAAUCUGCCACAAAGCUUGAGAGCAUCUUCGCAUGCAGAGGCGGCAGCCUUCGGUGGCGCGAUAGCGCCAACGUUCUCAACUAUGACACGCAAAACGCGUGCUCCGUUGAAUGUAGUUUAUCAUG [G59C G141U] | -0.299
GGAUCUUCUCGAUCUAACAAAAAAGACAAAUCUGCCACAAAGCUUGAGAGCAUCUUCGCAUGCAGAGGCGGCAGCCUUCGGUGGCGCGAUAGCGCCAACGUUCUCAACUAGGACACGCAAAACGCGUGCUCCGUUGAAUGGAGUUUAUCAUG [G59C U111G] | ≤ -4.2
GGAUCUUCUCGAUCUAACAAAAAAGACAAAUCUGCCACAAAGCUUGAGAGCAUCUUCGCAUGCAGAGGCGGCAGCCUUCGGUGGCGCGAUAGCGCCAACGUUCUCAACUAUGACACGCAAAACUCGUGCUCCGUUGAAUGGAGUUUAUCAUG [G59C G124U] | -0.228
GGAUCUUCUCGAUCUAACAAAAAAGACAAAUCUGCCACAAAGCUUGAGAGCAUCUUCGUAUGCAGAGGCGGCGGCCUUCGGUGGCAUGAUAGCGCCAACGUUCUCAACUAUGACACGCAAAACGCGUGCUCCGUUGAUUGGAGUUUAUCGUG [G59U A73G G86A C87U A138U A150G] | ≤ -4.2
GGAUCUUCUCGAUCUAACAAAAAAGACAAAUCUGCCACAAAGCUUGAGAGCAUCUUCGCAUGCAGAGGCGGCAGCCUUCGGUGGCGCGAUAGCGCCAACGUGCUCAACUAUGACACGCAAAACGCGUGCUCCGUUGAAUGGAGUUUAUCAUG [G59C U102G] | -2.05
GGAUCUUCUCGAUCUAACAAAAAAGACAAAUCUGCCACAAAGCUUGAGAGCAUCUUCGCAUGCAGAGGCGGCAGCCUUCGGUGGCGCGAUAGCGCCAACGUUCUCAACUAUGACACGCAAAACGCGUGCUCCGUUGAAAGGAGUUUAUCAUG [G59C U139A] | ≤ -4.2
GGAUCUUCUCGAUCUAACAAAAAAGACAAAUCUGCCACAAAGCUUGAGAGCAUCUUCGUAUGCAGAGGCGGCAGCGUUCGGUGGCGCGAUAGCGCCAACGUUCUCAACUUUGACACGCAAAACCCGUGCUCCGUUGGAUGGAGUUUAUCAUG [G59U C76G A110U G124C A137G] | ≤ -4.2
